Measured values from article PMC8351538 (Molecular Biology of the Cell, 2021).
Read-outs that look alike come from different tables or passages of the source.

B1: prenylated Ypt1 (natural protein)
chain: not shown
modifications: prenylated in vitro (geranylgeranyl pyrophosphate, GGTase)
B2: prenylated Ypt6 (natural protein)
chain: MSRSGKSLTKYKIVFLGEQGVGKTSLITRFMYDTFDDHYQATIGIDFLSKTMYLDDKTIRLQLWDTAGQERFRSLIPSYIRDSRVAIIVYDITKRKSFEYIDKWIEDVKNERGDENVILCIVGNKSDLSDERQISTEEGEKKAKLLGAKIFMETSTKAGYNVKALFKKIAKSLPEFQNSESTPLDSENANSANQNKPGVIDISTAEEQEQSACQC
modifications: prenylated in vitro (geranylgeranyl pyrophosphate, GGTase)
B3: myristoylated Arl1 (natural protein)
chain: MGNIFSSMFDKLWGSNKELRILILGLDGAGKTTILYRLQIGEVVTTKPTIGFNVETLSYKNLKLNVWDLGGQTSIRPYWRCYYADTAAVIFVVDSTDKDRMSTASKELHLMLQEEELQDAALLVFANKQDQPGALSASEVSKELNLVELKDRSWSIVASSAIKGEGITEGLDWLIDVIKEEQL
modifications: N-myristoylated
B4: prenylated Ypt32 (natural protein)
chain: MSNEDYGYDYDYLFKIVLIGDSGVGKSNLLSRFTTDEFNIESKSTIGVEFATRTIEVENKKIKAQIWDTAGQERYRAITSAYYRGAVGALIVYDISKSSSYENCNHWLTELRENADDNVAVGLIGNKSDLAHLRAVPTDEAKNFAMENQMLFTETSALNSDNVDKAFRELIVAIFQMVSKHQVDLSGSGTNNMGSNGAPKGPTISLTPAPKEDKKKKSSNCC
modifications: prenylated in vitro (geranylgeranyl pyrophosphate, GGTase)

Experiments:
Gdi1 = molecular target: T1, Gdi1 (S. cerevisiae, UniProt P39958 1-451); experiment: SEC
T1 sequence: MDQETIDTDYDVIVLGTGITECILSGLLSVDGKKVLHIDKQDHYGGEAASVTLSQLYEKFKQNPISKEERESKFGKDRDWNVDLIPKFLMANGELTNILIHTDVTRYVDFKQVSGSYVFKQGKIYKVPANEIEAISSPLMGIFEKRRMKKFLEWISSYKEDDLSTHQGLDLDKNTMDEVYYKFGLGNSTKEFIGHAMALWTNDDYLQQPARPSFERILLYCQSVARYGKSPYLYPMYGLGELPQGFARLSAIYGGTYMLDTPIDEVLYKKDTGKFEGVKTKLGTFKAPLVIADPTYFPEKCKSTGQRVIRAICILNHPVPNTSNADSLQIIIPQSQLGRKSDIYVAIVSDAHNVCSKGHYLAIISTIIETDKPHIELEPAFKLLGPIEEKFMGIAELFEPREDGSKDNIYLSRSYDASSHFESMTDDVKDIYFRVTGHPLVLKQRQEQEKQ

Gyp6 [1] = molecular target: T2, Gyp6 (S. cerevisiae (endogenous, purified …, UniProt P32806 1-458)); experiment: liposome flotation
T2 sequence: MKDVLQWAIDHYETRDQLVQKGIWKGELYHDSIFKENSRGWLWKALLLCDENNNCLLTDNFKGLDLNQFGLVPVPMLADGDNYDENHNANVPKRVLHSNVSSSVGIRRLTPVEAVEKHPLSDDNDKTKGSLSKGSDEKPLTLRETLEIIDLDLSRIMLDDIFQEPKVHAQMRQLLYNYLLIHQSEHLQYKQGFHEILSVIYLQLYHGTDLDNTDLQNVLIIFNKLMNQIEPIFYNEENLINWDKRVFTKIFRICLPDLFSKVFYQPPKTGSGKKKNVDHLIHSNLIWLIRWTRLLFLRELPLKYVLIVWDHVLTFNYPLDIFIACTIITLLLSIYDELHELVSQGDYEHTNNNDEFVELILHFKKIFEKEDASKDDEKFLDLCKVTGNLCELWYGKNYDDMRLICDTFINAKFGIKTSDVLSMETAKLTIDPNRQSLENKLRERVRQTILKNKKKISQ

Sec7 = Sec7 (S. cerevisiae (endogenous, purified …, UniProt P11075 1-2009)); experiment: liposome flotation
Sec7 (S. cerevisiae, sequence (P11075 whole entry): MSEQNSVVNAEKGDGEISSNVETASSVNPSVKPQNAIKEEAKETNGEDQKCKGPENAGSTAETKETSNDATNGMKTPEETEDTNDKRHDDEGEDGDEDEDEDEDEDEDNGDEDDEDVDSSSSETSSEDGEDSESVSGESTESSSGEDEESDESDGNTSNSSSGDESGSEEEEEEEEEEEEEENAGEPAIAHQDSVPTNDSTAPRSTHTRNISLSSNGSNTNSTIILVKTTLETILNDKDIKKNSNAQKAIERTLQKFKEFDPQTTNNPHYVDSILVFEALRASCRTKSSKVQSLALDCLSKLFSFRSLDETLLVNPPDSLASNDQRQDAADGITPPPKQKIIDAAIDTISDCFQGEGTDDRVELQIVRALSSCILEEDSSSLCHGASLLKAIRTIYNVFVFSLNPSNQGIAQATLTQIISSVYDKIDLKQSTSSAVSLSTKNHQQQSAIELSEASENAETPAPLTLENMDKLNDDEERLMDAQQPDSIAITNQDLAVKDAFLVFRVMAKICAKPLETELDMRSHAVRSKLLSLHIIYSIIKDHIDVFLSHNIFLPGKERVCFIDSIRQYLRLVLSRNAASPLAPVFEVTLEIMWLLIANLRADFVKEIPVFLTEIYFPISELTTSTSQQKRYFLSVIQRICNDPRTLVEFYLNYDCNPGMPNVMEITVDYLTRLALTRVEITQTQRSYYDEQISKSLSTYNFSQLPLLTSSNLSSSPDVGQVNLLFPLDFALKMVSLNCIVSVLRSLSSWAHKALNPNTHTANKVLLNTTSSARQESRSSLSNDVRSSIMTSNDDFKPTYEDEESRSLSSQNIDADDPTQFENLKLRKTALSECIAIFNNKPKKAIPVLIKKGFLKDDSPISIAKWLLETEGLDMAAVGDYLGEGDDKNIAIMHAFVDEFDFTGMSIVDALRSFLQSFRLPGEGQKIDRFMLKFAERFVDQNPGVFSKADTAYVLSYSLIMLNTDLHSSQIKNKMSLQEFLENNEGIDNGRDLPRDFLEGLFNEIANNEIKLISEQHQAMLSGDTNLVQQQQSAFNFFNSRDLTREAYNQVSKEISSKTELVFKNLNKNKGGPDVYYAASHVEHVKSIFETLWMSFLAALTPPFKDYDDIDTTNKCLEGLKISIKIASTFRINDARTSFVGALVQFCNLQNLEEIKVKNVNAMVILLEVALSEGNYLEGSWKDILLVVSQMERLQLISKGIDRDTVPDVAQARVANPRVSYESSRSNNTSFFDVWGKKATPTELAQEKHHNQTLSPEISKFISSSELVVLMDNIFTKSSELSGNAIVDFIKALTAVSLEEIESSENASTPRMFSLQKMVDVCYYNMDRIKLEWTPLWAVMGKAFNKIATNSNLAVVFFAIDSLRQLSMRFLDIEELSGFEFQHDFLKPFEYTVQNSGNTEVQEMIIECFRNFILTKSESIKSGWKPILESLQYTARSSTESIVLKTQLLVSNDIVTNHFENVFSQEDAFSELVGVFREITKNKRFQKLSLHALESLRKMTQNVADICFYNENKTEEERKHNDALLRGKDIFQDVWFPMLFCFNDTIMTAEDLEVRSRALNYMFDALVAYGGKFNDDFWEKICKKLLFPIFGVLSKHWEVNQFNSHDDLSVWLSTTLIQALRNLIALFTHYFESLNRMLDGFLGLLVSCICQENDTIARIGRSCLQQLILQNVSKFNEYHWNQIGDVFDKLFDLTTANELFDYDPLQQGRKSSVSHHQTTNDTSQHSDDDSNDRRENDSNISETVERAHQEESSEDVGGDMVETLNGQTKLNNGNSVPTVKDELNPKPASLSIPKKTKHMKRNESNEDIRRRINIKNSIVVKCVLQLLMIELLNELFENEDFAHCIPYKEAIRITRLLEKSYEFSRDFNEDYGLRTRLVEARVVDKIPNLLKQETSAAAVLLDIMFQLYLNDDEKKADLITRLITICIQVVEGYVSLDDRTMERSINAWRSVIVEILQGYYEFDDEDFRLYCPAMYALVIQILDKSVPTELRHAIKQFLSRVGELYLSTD

Gyp6 [2] = molecular target: T2, Gyp6; experiment: liposome flotation; remark: listed apart in the source

Row | Binder | binding result (Gdi1) | binding result (Gyp6 [1]) | binding result (Sec7) | binding result (Gyp6 [2])
1 | B1 | binds |  |  | 
2 | B2 | binds |  |  | 
3 | B3 |  | binds |  | 
4 | B4 | binds |  | binds | binds
